{
  "source": "patent US20160015831A1",
  "about": "(BIOALLIANCE C V, published 2016)",
  "binders": {"B1": {"name": "hLL2-IgG1-Tap18Hr1 (antibody)", "heavy": "not shown", "light": "DIQLTQSPSSLSASVGDRVTMSCKSSQSVLYSANHKNYLAWYQQKPGKAPKLLIYWASTRESGVPSRFSGSGSGTDFTFTISSLQPEDIATYYCHQYLSSWTFGGGTKLEIKRTVAAPSVFIFPPSDEQLKSGTASVVCLLNNFYPREAKVQWKVDNALQSGNSQESVTEQDSKDSTYSLSSTLTLSKADYEKHKVYACEVTHQGLSSPVTKSFNRGEC", "modifications": "Tap18Hr1 linker-drug on cysteine thiols of the partially reduced antibody (light chain with 0 or 1 drug); sites not stated; Tap18Hr1 linker-drug (monomethyl dolastatin 10) on cysteine thiols of the partially reduced antibody, conventional conjugation, DAR 2.7-3.5; sites not stated", "notes": "also called Anti-hLL2-IgG1-Tap18Hr1; Anti-CD22 (hLL2)-IgG1-Tap18Hr1"}, "B2": {"name": "hLL2-S157C-IgG1-Tap18Hr1 (antibody)", "heavy": "not shown", "light": "B1 light", "modifications": "Tap18Hr1 linker-drug (monomethyl dolastatin 10) on the introduced Cys 157 (EU numbering); site-specific conjugation, DAR 1.58-2.01", "notes": "also called hLL2-S157C-IgG1 Tap18Hr1 conjugate"}, "B3": {"name": "hLL2-S442C-IgG1-Tap18Hr1 (antibody)", "heavy": "not shown", "light": "B1 light", "modifications": "Tap18Hr1 linker-drug (monomethyl dolastatin 10) on the introduced Cys 442 (EU numbering); site-specific conjugation, DAR 1.58-2.01", "notes": "also called hLL2-S442C-IgG1 Tap18Hr1 conjugate"}, "B4": {"name": "hLL2-T169C-IgG4p-Tap18Hr1 (antibody, name in EU numbering)", "heavy": "not shown", "light": "B1 light", "modifications": "Tap18Hr1 linker-drug (monomethyl dolastatin 10) on the introduced Cys 169 (EU numbering); site-specific conjugation, DAR 1.58-2.01", "notes": "also called hLL2-T169C-IgG4p Tap18Hr1 conjugate"}},
  "key": {"human CD22 [1]": {"molecular_target": "T1, human CD22 (human, UniProt P20273 20-847)", "T1 construct": "Endogenous CD22 on human cell lines Daudi, Raji, Ramos, RL, REH and NALM-6; no signal peptide limits are stated; also called antigen CD22", "assay": "flow cytometry, REH cells, Tap18Hr1 conjugate 3.3 µg/mL", "procedure": "(§1) 6×10⁴˜1×10⁵ cells were seeded per well in a v-bottomed 96-well plate and incubated with 100 μl of the unconjugated Abs or the ADCs at titrated concentrations or isotype control antibody human IgG at 10 μg/mL. After 30-60 minutes of incubation at 4° C., cells were washed once with 200 μl FACS buffer (lx PBS containing 1% FBS), stained with 100 μl of 1 μg/ml goat F(ab′)2-anti-human IgG (H+L)-RPE (Southern Biotech, Cat. No. 2043-09) in FACS buffer and then incubated at 4° C. for 30˜60 min Cells were washed once with FACS buffer and analyzed by flow cytometer (BD LSR, BD Life Sciences).\n(§2) The binding ability of hLL2-Cys variants with or without drug conjugation was evaluated in Daudi and REH cancer cells."}, "human CD22 [2]": {"molecular_target": "T1, human CD22", "assay": "flow cytometry, REH cells, Tap18Hr1 conjugate 3.3 µg/mL", "procedure": "as §1\n(§3) In general, the site-specific conjugated hLL2-IgG4p ADCs retained antigen reactivity of antibody.", "remark": "listed apart in the source"}, "human CD22 [3]": {"molecular_target": "T1, human CD22", "assay": "flow cytometry, Daudi cells, Tap18Hr1 conjugate 3.3 µg/mL", "procedure": "as §1, §2"}, "human CD22 [4]": {"molecular_target": "T1, human CD22", "assay": "flow cytometry, Daudi cells, Tap18Hr1 conjugate 3.3 µg/mL", "procedure": "as §1, §3", "remark": "listed apart in the source"}, "human CD22 [5]": {"molecular_target": "T1, human CD22", "assay": "cell-based or functional assay"}, "human CD22 [6]": {"molecular_target": "T1, human CD22", "assay": "cell-based or functional assay", "remark": "listed apart in the source"}},
  "note": "Read-outs that look alike come from different tables or passages of the source.",
  "data": [
    {"binder": "B1", "values": [
      {"measurement": "MFI", "setting": "human CD22 [1]", "result": 104},
      {"measurement": "MFI", "setting": "human CD22 [2]", "result": 104},
      {"measurement": "MFI", "setting": "human CD22 [3]", "result": 1400},
      {"measurement": "MFI", "setting": "human CD22 [4]", "result": 1400}
    ]},
    {"binder": "B2", "values": [
      {"measurement": "% inhibition, WST-1 cytotoxicity, Daudi cells, 1.1 µg/mL", "setting": "human CD22 [5]", "result": 76.3, "unit": "%"},
      {"measurement": "% inhibition, WST-1 cytotoxicity, Daudi cells, 3.3 µg/mL", "setting": "human CD22 [5]", "result": 79.4, "unit": "%"},
      {"measurement": "% inhibition, WST-1 cytotoxicity, Ramos cells, 1.1 µg/mL", "setting": "human CD22 [5]", "result": 90.4, "unit": "%"},
      {"measurement": "% inhibition, WST-1 cytotoxicity, Ramos cells, 3.3 µg/mL", "setting": "human CD22 [5]", "result": 93.9, "unit": "%"},
      {"measurement": "MFI", "setting": "human CD22 [1]", "result": 94},
      {"measurement": "MFI", "setting": "human CD22 [3]", "result": 1230}
    ]},
    {"binder": "B3", "values": [
      {"measurement": "% inhibition, WST-1 cytotoxicity, Daudi cells, 1.1 µg/mL", "setting": "human CD22 [5]", "result": 77.6, "unit": "%"},
      {"measurement": "% inhibition, WST-1 cytotoxicity, Daudi cells, 3.3 µg/mL", "setting": "human CD22 [5]", "result": 79, "unit": "%"},
      {"measurement": "% inhibition, WST-1 cytotoxicity, Ramos cells, 1.1 µg/mL", "setting": "human CD22 [5]", "result": 92, "unit": "%"},
      {"measurement": "% inhibition, WST-1 cytotoxicity, Ramos cells, 3.3 µg/mL", "setting": "human CD22 [5]", "result": 96, "unit": "%"},
      {"measurement": "MFI", "setting": "human CD22 [1]", "result": 87},
      {"measurement": "MFI", "setting": "human CD22 [3]", "result": 914}
    ]},
    {"binder": "B4", "values": [
      {"measurement": "% inhibition, WST-1 cytotoxicity, Daudi cells, 1.1 µg/mL", "setting": "human CD22 [6]", "result": 67.2, "unit": "%"},
      {"measurement": "% inhibition, WST-1 cytotoxicity, Daudi cells, 3.3 µg/mL", "setting": "human CD22 [6]", "result": 70.8, "unit": "%"},
      {"measurement": "% inhibition, WST-1 cytotoxicity, NALM-6 cells, 10 ug/ml", "setting": "human CD22 [6]", "result": 68.2, "unit": "%"},
      {"measurement": "% inhibition, WST-1 cytotoxicity, REH cells, 10 ug/ml", "setting": "human CD22 [6]", "result": 42.6, "unit": "%"},
      {"measurement": "% inhibition, WST-1 cytotoxicity, Ramos cells, 1.1 µg/mL", "setting": "human CD22 [6]", "result": 89.6, "unit": "%"},
      {"measurement": "% inhibition, WST-1 cytotoxicity, Ramos cells, 3.3 µg/mL", "setting": "human CD22 [6]", "result": 93.3, "unit": "%"},
      {"measurement": "MFI", "setting": "human CD22 [2]", "result": 60},
      {"measurement": "MFI", "setting": "human CD22 [4]", "result": 625}
    ]}
  ]
}
